Test: soluble on expression in E. coli; label from the status in PepcDB or PDB records
In the case of “MASNEARYVLAEEVDFSSPEEVKNWWNSGTWQAEFGSPDIEWNGEVGNGALQLNVKLPGKSDWEEVRVARKFERLSECEILEYDIYIPNVEGLKGRLRPYAVLNPGWVKIGLDMNNANVESAEIITFGGKEYRRFHVRIEFDRTAGVKELHIGVVGDHLRYDGPIFIDNVRLYKRTGGM”, the “soluble on expression in E. coli” value is reported as “soluble”. With “MSLHHLTTYITHDTLISALGFGTQENLEAIRSYHSGITLQTDKRIADTPLLAATLSQERLQQQAEAIGVSGYPRMEQLFILTINELIRQSGQTLEDKTCGLILSTTKGNIDLLARHTEHPDEAVFLWKMAENIAGYFHAEERVHVISNACISGVSALIAGKRMIENGIYRRVIVAGGDLLSHFITSGFGSFRSLSSRPCRPYDSSRDGLNLGEACGAVLLSSEGTEEHVILSGGAVSNDANHISGPSRTGDGLYFAIRQAMQEAGTAPQDISFVNAHGTATVYNDEMESKALTLAHLEQVPVHSLKPYFGHTLGASGIIESIVCMHELKQGILFGTPGYETPGVPMPIPVYATHRSIPMKHCVKTASGFGGCNAAIVLSLPEYTPFKDEDNTLPEIRCTREVRIENSSVFINNELIFHSEEPDFGTFIRDTYKKTGGNNLKFYKMDDLCKLGYVAAEYLLEGKTFAPLEMGMLLANAASSLHTDIRHQQLIDREGDQAASPAVFVYTLPNVVSGEICIRHKIQGENTFFITEAYQPEKLERYARIVMQKGKLNYCIIGWCELWKNTYKAVFKLIEKEGHHHHHH” the “soluble on expression in E. coli” value was “soluble”. With “MKVNVSCSSVQTTIDILEENQGEDESILTLGQLRDRIATDNDVDVETMKLLHRGKFLQGADDVSLSTLNFKENDKIIVMGGKNALVDDAGFKMLMQYEKHNLSNLQKAYDLNLRDVADLERGFLEKPKQVEMGKKLEKKVKYFNEEAERHLETLDGMNIITETTPENQAKRNREKRKTLVNGIQTLLNQNDALLRRLQEYQSVLNGDIPE” the “soluble on expression in E. coli” value was “soluble”. With “MGSDKIHHHHHHAGEKLVESAAAPRIINIINFIRQTDYRVENADSLLYETVCEQVKLVNKYDLPATFLLQYDALINPLYQDLLKSKLNAHSEIGAWWELTQPQIEAAGIKWRGEHSWVSHANIAFSTGYTKEERERLVDVYMAKFKEIFGTYPKSVGSWFIDAHTLGYMYDKYKIVASCNCKDQVGTDGYTLWGGYWNQAYYPSRVNAYMPAQTEEGQIPVPIFRMLGSDPIYQYDDGLGQERQGVISLEPVYEKAGMDRRWVDYFLESIVNQPCLAFNYAQAGQENSFTWSNMSKGLEMQIPILDSLRKENKIRVETLGESGAWFKECFKVTPPTAVTTLTDVRGEGNKTVWFNSRYYRANLLWERGTFRFRDIHLFDEGYKSAYMEKPGDGNQFLFYTLPVVDGFMWSEGLDRAGLRIVRLDKDGDKEELTLDHPVVTEIGKDTLVVSAEDSKGHPFKITFYETRFEVAALSKEADLSWALELKVAAGKELPFTVIEDKAVNASFDGFNYVITCKKGHIRKPESGSDYVFRILPSDKEIVINCTNTRLNCTHEK” the “soluble on expression in E. coli” value was “not soluble”. With “MITFQEFVNYWFEAYAKIAVKQSTQKRYRELLIPAIKAIGTKPLSDIKPLDIQKIYMNLTGKLSDSTILKLHRLLHEIFKHAVMWEYISDNPVKKVLPPSPELEHHHHHH” the “soluble on expression in E. coli” value was “soluble”. With “MTIKTPTVKVPGLGTDPLEQRIKEKEKKWKYKIAVLSGKGGVGKSTVAVNLTAALAKMGYFVGILDADIHGPNVAKMLGVDKEEVYAEKFDDGHFEMIPPTTDFMGQVTPIKVMSMGMMVPEDQPVIWRGPLVTKAIKQLLGDVKWGSLDFMIIDFPPGTGDEILTVVQSIKLDAAIIVTTPQEVALLDTGKAVNMMKKMEVPYVAVVENMSYLICPHCGNKIDIFGEGGGEKLAQKEGVDFLGKIPIDLKAREASDLGIPIVLYEDTPAAKAFMELAEKLVNKLKEIKGDGGKELEHHHHHH” the “soluble on expression in E. coli” value was “soluble”. For “MVKKSEFERGDIVLVGFDPASGHEQQGAGRPALVLSVQAFNQLGMTLVAPITQGGNFARYAGFSVPLHCEEGDVHGVVLVNQVRMMDLHARLAKRIGLAADEVVEEALLRLQAVVE”, the “soluble on expression in E. coli” value was “soluble”. For “MSLEYKYDVVIVGLGPAGSSLAYLLKDTGLKVAGLDIADFNRVWGKPCGDAIGKGHFLETGLPLPKGEAMMQVVNAVDIYSPSEEVKIRLSEPEGGFMIDRNKYGLQLLEEAQKSGVDVYLKTHALSPIIENGRLVGVYAKRHGEDGDVNVKFYSKIIVDATGSGGAIKRKLPSSWPVVEPLKPTDSAVAYRKIVELDYDIEEPDVIRIYINADIAPGGYWWLFPKGRRIANIGIGVQRGRGYPHPRHLYEKYLDKRPDTGRVVRLLNEAGALLPTRRPANTIVWDNFVSIGDNAYTVNPVHGGGMGYAMTAAMYAARGIEKAFEKGDYSVETLWDINLGYMRSTGAKQAGLDILRIYLQTLTNEEVEWAMRNGLANVDNLVEASTQGEIKRLNLTLLEKAKVLARLLGRPTKLMELLTVAEYMSKVKKLYYEYPERPDGLPRWVDRVETLYREYKARLGIDWEGHHHHHH”, the “soluble on expression in E. coli” value was “soluble”. In the case of “MPVTEVGSLPELNNILERSDANRLIIIDFFANWCGPCRMISPIFEQFSAEYGNATFLKVNCDVARDIVQRYNISAMPTFIFLKNRQQVDMVRGANQQAIAEKIRQHYSPTPANPNAASDSEKRFLEQFVKCSNVPRSYQDEVFKALARSVMPEELVGRAMTEGPRDEKAILKDLLHWFKTQFFTWFDRPTCPKCTLKCSTDGLQGTPTREEQKEGGASRVEVYICDGCNTEMRFPRYNNPAKLLQTRTGRCGEWANCFGLLLAALNLESRFIYDTTDHVWNEVYLLAEQRWCHVDPCENTMDRPLLYTRGWGKTLGYCIGYGSDHVVDVTWRYIWDSKKLVTQRNEVRQPVFENFLSKLNSRQAEGQTEPRKRELAVRRVCELMEMMAQEAKNHKIGWEKIGDDLGGRITGSEEWRRERGELGESGPKLLAEPIKLAPPTGPAQNYLEFNYDVITDTYSQPPEIGFSAQAFELENVQRVEETDWNMTYLCRKRGDAPGNISWHFDLKSLKKSIEKIEIRMAGIQKFEKGKAMAIACLGDSCMRLPIDCSALTIEDPKNAEILKITATLSGGEGAIGFQQAQIFRTELKRGGGARTESFSVKIWMKN”, the “soluble on expression in E. coli” value is reported as “not soluble”. With “MIKINISQNFLVAKGHALFAEKGKDIVCAAISGIIFGGVAWFEPDKIEFTENKLVPSIALKLIDPTPNVAVAFSVITVQLKAIANSYPNHIVINEESYE” the “soluble on expression in E. coli” value was “soluble”. In the case of “MGSDKIHHHHHHMDKMLYTAASGASRIMEAQSIRANNLANAETTGFKADLERVKSMALPGVEASLSTRVLVQTQSNGFSQQSGEMNHTGRNLDMAIRDRGLFTVMVDGGEAYTRAGAMIADAEGQLTVNGRPVLGIDGPMVLPEHKDLFVGEDGTISVLPAEGGVIQEVGRLKMVNPELNELTKGADGLLYPIAAGVLAADDGVQVDSGYLESSNVQAVSELIASMDLSRQFEIQVKLMKSAEKLAEAGNRLIRNA”, the “soluble on expression in E. coli” value is reported as “not soluble”. In the case of “GSHMLFAEFAEFCERLEKISSTLELTARIAAFLQKIEDERDLYDVVLFITGKVYPPWDERELGVGIGLLYEALENVSGVKRSEIESMIREYGDLGLVAEQLIKKKKMTTLAFEELTVRKVRETFDEIASLTGEGSMKRKIMLLTGLYGLATPLEARYLTRLILNEMRLGVGEGIMRDAIARAFRADPETVERAYMITNDLGRVAVVAKKEGEEGLRKMKIEIHIPVRMMLAQVAESLESAVREMRTAAVEWKFDGSRVQVHWDGSRVTIYSRRLENVTNALPDIVEEIKKSVKPGVILDGEVIAVKEGKPMPFQHVLRRFRRKHDVAKMVEKIPLEAHFFDILYHDGECIDLPLRERRKLLESAVNESEKIKLAKQIVTDSVDEVRKMYDEAISAGHEGVMIKLPSSPYIPGKRGKNWLKVKAIMETLDLVVVGGEWGEGKRSHWLSSFELACLDPVTGKLLKVGRVATGFTEEDLEELTEMFRPLIVSQQGKKVEFIPKYVFEVAYQEIQKSPKYESGYALRFPRFVRLRDDKDVDEADTIERVENLYKLQFEVKRQ”, the “soluble on expression in E. coli” value is reported as “soluble”. In the case of “GKLKKKGYLRIVTTQGSLNIELHADMAPRACDSFLRLCAVKYFDDTIFHRCIRNFMIQGGRAELRQPSKKKEVQQSPRSISGFPGGAPFEDEFDNRLVHQGIGVLSMANDGKHSNLSEFFITFKSCEHLNNKHTIFGRVVGGLDVLRQWEKLETDKKDKPLKPPKVEEIIVFKNPFEDARKEMEDEKREEEEKEKKKLENA”, the “soluble on expression in E. coli” value is reported as “soluble”. For “MVSARLIFVPLHARPSGISSATTGYVPWRSFIYRNGGGRPVQSSRPWLNMQQTLRITEIFYSLQGETRTAGLPTVFVRLTGCPLRCHYCDTAYAFSGGDVVSLDAIFERVAAYKPRYICVTGGEPLAQPNCISLLERLCDAGYEVSLETSGALDVSRVDPRVSKVLDLKTPGSGEVGRNRYENIPLLTDNDQVKFVVCSREDYDWAVSKLIEYRLDQRAGEVLFSPSHHQVSARELADWIVADNLPVRLQLQLHKILWNDEPGH”, the “soluble on expression in E. coli” value was “soluble”. In the case of “MGSDKIHHHHHHMVNGRFFTTAGESPAFRGRAWGRVVTQYFGGLDACCDGDDAFDAQLSQYEIGPMRVFTIAAPAHRIVRPVAALHDHGSDFFKLILQLSGVSEIEQRGKTFRLHSGDWSLYDPRVPYSIANLTHVEQLAIQIPRKQLGGFAVPDLHTSDVREFELKGLFSLLSSFLVSLSEQLPSLPGTTGTALSETILGLIVSTLTAQRDAQGEHVALPAVLRMRVKQYIHGHLADADLSIDRIARELRCSKRYLHRIFEEEGVTIDRYIWSSRLERCKDALDNARAAKPAISEIAFSWGFSSSAHFCRSFKQRYGMTPREFVRRRAWS”, the “soluble on expression in E. coli” value is reported as “not soluble”. For “RIGVIGTGAIGGFYGLMLAHAGHDVHFLLRSEFEAVNRAGLSLNSAVHGFRRLAPVQAYHSAQDMPPCDWLLVGAKTTGNDELAPLIRAAAAPGAKVLLLQNGLGVEERLRPLLPESLHLLGGLCFICVHRGEPGVIEHQAYGGVNLGYHSGPADERRRREIVEEGAALFRESGLESTAMPDLEQARWQKLVWNIPYNGLSVLLKSSTAPLMANADSRSLIEAIMEEVIGAAGACGFILPEGYADQLLAATERMPDYRPSMYHDFAHGRPLELAAIYAAPLARAAA”, the “soluble on expression in E. coli” value was “not soluble”. With “MGSDKIHHHHHHMNDAAPTCTGGCTLNVLHTTTYHYSQPVEHAQQRAVATPPDLPWQSVTAHDTRIEPVPTHQHVRTDAFGNRVLHFMLDVPHTQMQLTCASTVVLTPRWQTLDPSASAPWETVAQSLRFHAAQPFEPATQFAFASPNIALHPSLRDYALPSFGAGVPVVAGAMDLMRRIHADFTYHSESTEVHTPAMQAFAQRSGVCQDFAQVMIGCLRSVGVAARYVSGYLCTEPPPGEERLVGADASHAWVSVYCPVAGWVDLDPTNNVLADTRHVTLAWGRDYSDVPLLHGVIVGGGAHGVDVGVTVVPVD” the “soluble on expression in E. coli” value was “not soluble”. For “GPGSMFILADQLALPLPRSPLFFDVFDFSLEHTAMSQEAGCDTKGGGSTVTSVTAGTSGKHEETPVVTEDSSFVYACRLCRRILFTHEEIMPHSADSSSKGPKAFGRRGAPKQQSDQQNAGVCTSYFLNPDVSIWVAAESREAHCESGGTSVLPDTVYCPNNSCSAKIGTQSWVGSQCSCGVWVTPAFKIHGRAVDKLQSQ”, the “soluble on expression in E. coli” value was “not soluble”. With “MGSDKIHHHHHHMEKTAIRIPIFMYSLLTPAWEHKIEAQTDGDPFGDSQPMKEYYGPNGKWLLDGVLRHLNISREDEIAILTTSDERYVSTCVSITCFNYAKISRVVGPNTKVVIVIHEFGYVYPDIKNYVCNLKERGIVVIEDCAHIIGCDINGKKIGSFGDYALFSLPKISPARAGGLLRTTKNIKLPVLNSNLSQLTNIGIAGAEKYLPKYKFFNKGRIERAELLKSQVNDLCNIFEPSHPAVPYFLGIVTSEKSKIETSLPWIEFGATLRNDLVYIPTNPLASINLFELITNTIKNGGKICN” the “soluble on expression in E. coli” value was “not soluble”. For “MKIQDYTKQMVDEKSFIDMAYTLLNDKGETMNLYDIIDEFRALGDYEYEEIENRVVQFYTDLNTDGRFLNVGENLWGLRDWYSVDDIEEKIAPTIQKFDILDADDEEDQNLKLLGEDEMDDDDDIPAQTDDQEELNDPEDEQVEEEINHSDIVIEEDEDELDEDEEVFEDEEDFND”, the “soluble on expression in E. coli” value was “not soluble”.

Reference: the DeepSol protein solubility set
